Measurements reported in article PMC8371691.

Molecular target: N-terminal(Lon)-LotP.His ('Candidatus Liberibacter asiaticus')
Test: SEC

N-terminal(Lon)-LotP.His was tested, and the stoichiometry N was 2.
